The values that follow are results of earlier work, collected in PMC2827930.

The data set concerns the target RBPjκ (UniProt P31266).
UniProt P31266, sequence (P31266 53-474): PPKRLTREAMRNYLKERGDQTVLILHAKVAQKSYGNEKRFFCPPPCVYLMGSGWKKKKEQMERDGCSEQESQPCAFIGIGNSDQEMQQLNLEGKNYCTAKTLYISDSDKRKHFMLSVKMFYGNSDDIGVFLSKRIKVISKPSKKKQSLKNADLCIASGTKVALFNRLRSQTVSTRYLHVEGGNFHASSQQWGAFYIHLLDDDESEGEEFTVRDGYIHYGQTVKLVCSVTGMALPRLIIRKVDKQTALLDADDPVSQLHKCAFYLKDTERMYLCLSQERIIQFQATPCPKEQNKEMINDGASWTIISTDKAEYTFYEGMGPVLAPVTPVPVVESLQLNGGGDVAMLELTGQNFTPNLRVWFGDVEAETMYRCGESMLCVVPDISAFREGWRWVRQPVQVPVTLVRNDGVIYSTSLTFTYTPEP

Regarding Notch RAM (from UniProt P46531), the Kd (as a rule, the concentration at which binding is half-saturated) is 200 nM.
